Measured values as given in the supplement of paper PMC9112550, “Optimization of the antimicrobial peptide Bac7 by deep mutational scanning” (BMC Biology, 2022).

Test system: Escherichia coli TOP10
Test: shrunken log2 fold change of peptide-encoding DNA abundance (4.5 h post-induction vs induction); higher = less antimicrobial activity (less host growth inhibition)
Conditions: time post-induction: 4.5 h; library: site-saturation at positions 5, 18, 19, 20
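Further: peptides expressed intracellularly from a pBAD plasmid library in pooled LB shake-flask culture, induced with 0.3% L-arabinose, DNA abundance read by NGS, three biological replicates, DESeq2 with apeglm shrinkage.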

Row | Sequence | shrunken log2 fold change
1 | RRIRTRPPRLPRPRPRPYIAPRP | -0.476
2 | RRIRIRPPRLPRPRPRPYWCPRP | 0.0219
3 | RRIRTRPPRLPRPRPRPMMAPRP | 0.0689
4 | RRIRMRPPRLPRPRPRPMRAPRP | 2.56
5 | RRIRFRPPRLPRPRPRPIIVPRP | -0.394
6 | RRIRIRPPRLPRPRPRPQNVPRP | -0.173
7 | RRIRRRPPRLPRPRPRPLTGPRP | 0.0456
8 | RRIRARPPRLPRPRPRPMKFPRP | 0.0174
9 | RRIRYRPPRLPRPRPRPFLYPRP | -0.881
10 | RRIRTRPPRLPRPRPRPAPRPRP | 1.39
11 | RRIRFRPPRLPRPRPRPYVIPRP | -0.303
12 | RRIRDRPPRLPRPRPRPRHMPRP | 0.0599
13 | RRIRFRPPRLPRPRPRPWMTPRP | 0.0687
14 | RRIRCRPPRLPRPRPRPFRVPRP | -0.32
15 | RRIRDRPPRLPRPRPRPAYYPRP | -0.947
16 | RRIRFRPPRLPRPRPRPGEVPRP | 0.185
17 | RRIRFRPPRLPRPRPRPSRMPRP | 0.311
18 | RRIRCRPPRLPRPRPRPKLPPRP | -0.0559
19 | RRIRNRPPRLPRPRPRPTKLPRP | 0.0886
20 | RRIRHRPPRLPRPRPRPMMHPRP | 0.117
21 | RRIRPRPPRLPRPRPRPYSTPRP | -0.729
22 | RRIRWRPPRLPRPRPRPAWCPRP | 0.469
23 | RRIRGRPPRLPRPRPRPCPVPRP | 0.197
24 | RRIRGRPPRLPRPRPRPAYQPRP | 0.254
25 | RRIRNRPPRLPRPRPRPTMCPRP | -0.0233

Row | Sequence | shrunken log2 fold change
26 | RRIRMRPPRLPRPRPRPDGCPRP | 2.12
27 | RRIRKRPPRLPRPRPRPCHRPRP | 0.00781
28 | RRIRFRPPRLPRPRPRPGIYPRP | -0.184
29 | RRIRDRPPRLPRPRPRPDNLPRP | 0.0916
30 | RRIRPRPPRLPRPRPRPIPNPRP | -0.353
31 | RRIRSRPPRLPRPRPRPKGNPRP | -0.144
32 | RRIRIRPPRLPRPRPRPANDPRP | -0.135
33 | RRIRNRPPRLPRPRPRPWYVPRP | -0.097
34 | RRIRFRPPRLPRPRPRPYPEPRP | -0.488
35 | RRIRWRPPRLPRPRPRPCGLPRP | 0.123
36 | RRIRQRPPRLPRPRPRPLAAPRP | 0.395
37 | RRIRSRPPRLPRPRPRPNWQPRP | 0.0694
38 | RRIRARPPRLPRPRPRPSAPPRP | 0.397
39 | RRIRKRPPRLPRPRPRPEWFPRP | 0.219
40 | RRIRSRPPRLPRPRPRPFRMPRP | -0.646
41 | RRIRPRPPRLPRPRPRPSSMPRP | -0.29
42 | RRIRCRPPRLPRPRPRPVFQPRP | -0.0498
43 | RRIRVRPPRLPRPRPRPHMRPRP | -0.0474
44 | RRIRARPPRLPRPRPRPMVLPRP | -0.118
45 | RRIRRRPPRLPRPRPRPSVRPRP | 0.238
46 | RRIRMRPPRLPRPRPRPKSCPRP | 0.839
47 | RRIRPRPPRLPRPRPRPCLVPRP | -0.179
48 | RRIRDRPPRLPRPRPRPINTPRP | -0.115
49 | RRIRYRPPRLPRPRPRPFEMPRP | -0.738
50 | RRIRNRPPRLPRPRPRPIQCPRP | -0.01

Row | Sequence | shrunken log2 fold change
51 | RRIRVRPPRLPRPRPRPQAAPRP | 0.0662
52 | RRIRGRPPRLPRPRPRPWQYPRP | -0.0381
53 | RRIRARPPRLPRPRPRPIERPRP | 0.047
54 | RRIRTRPPRLPRPRPRPMDAPRP | 0.0575
55 | RRIRLRPPRLPRPRPRPPQQPRP | 0.313
56 | RRIRYRPPRLPRPRPRPMALPRP | -0.142
57 | RRIRFRPPRLPRPRPRPTFRPRP | -0.0216
58 | RRIRTRPPRLPRPRPRPFPLPRP | -0.147
59 | RRIRWRPPRLPRPRPRPLVPPRP | -0.000952
60 | RRIRGRPPRLPRPRPRPKLVPRP | 0.326
61 | RRIRCRPPRLPRPRPRPSCGPRP | -0.103
62 | RRIRKRPPRLPRPRPRPWCYPRP | -0.168
63 | RRIRWRPPRLPRPRPRPWKIPRP | -0.0733
64 | RRIRTRPPRLPRPRPRPFFWPRP | 0.276
65 | RRIRHRPPRLPRPRPRPWCMPRP | -0.0194
66 | RRIRARPPRLPRPRPRPQTKPRP | 0.135
67 | RRIRIRPPRLPRPRPRPDSWPRP | -0.268
68 | RRIRMRPPRLPRPRPRPQVCPRP | 0.0261
69 | RRIRCRPPRLPRPRPRPDDHPRP | -0.338
70 | RRIRCRPPRLPRPRPRPFTIPRP | -0.0284
71 | RRIRMRPPRLPRPRPRPTILPRP | -0.0108
72 | RRIRPRPPRLPRPRPRPLTDPRP | 0.111
73 | RRIRLRPPRLPRPRPRPFQIPRP | -0.109
74 | RRIRQRPPRLPRPRPRPRSCPRP | 0.268
75 | RRIRKRPPRLPRPRPRPLTGPRP | -0.0975

Row | Sequence | shrunken log2 fold change
76 | RRIRARPPRLPRPRPRPSEIPRP | -0.00993
77 | RRIRQRPPRLPRPRPRPRDSPRP | 0.0142
78 | RRIRGRPPRLPRPRPRPREKPRP | 0.969
79 | RRIRGRPPRLPRPRPRPHSCPRP | 0.153
80 | RRIRTRPPRLPRPRPRPCAPPRP | -0.142
81 | RRIRFRPPRLPRPRPRPIVPPRP | 0.0537
82 | RRIRGRPPRLPRPRPRPPAHPRP | 1.02
83 | RRIRVRPPRLPRPRPRPVHAPRP | -0.189
84 | RRIRARPPRLPRPRPRPNLDPRP | -0.152
85 | RRIRLRPPRLPRPRPRPAVNPRP | -0.0174
86 | RRIRFRPPRLPRPRPRPPQWPRP | 0.384
87 | RRIRTRPPRLPRPRPRPMFQPRP | -0.446
88 | RRIRVRPPRLPRPRPRPEGVPRP | 0.907
89 | RRIRQRPPRLPRPRPRPEYHPRP | -0.141
90 | RRIRARPPRLPRPRPRPFNQPRP | -0.257
91 | RRIRLRPPRLPRPRPRPQRLPRP | 0.239
92 | RRIRLRPPRLPRPRPRPTDKPRP | -0.251
93 | RRIRLRPPRLPRPRPRPMYHPRP | -0.493
94 | RRIRGRPPRLPRPRPRPAEIPRP | 0.076
95 | RRIRWRPPRLPRPRPRPNTLPRP | -0.359
96 | RRIRARPPRLPRPRPRPMPVPRP | 0.0463
97 | RRIRVRPPRLPRPRPRPPYGPRP | 0.024
98 | RRIRNRPPRLPRPRPRPDYTPRP | 0.115
99 | RRIRKRPPRLPRPRPRPDWYPRP | -0.149
100 | RRIRFRPPRLPRPRPRPKGDPRP | 0.054

Row | Sequence | shrunken log2 fold change
101 | RRIRERPPRLPRPRPRPSIGPRP | -0.406
102 | RRIRYRPPRLPRPRPRPHMEPRP | -0.249
103 | RRIRQRPPRLPRPRPRPWMRPRP | 0.131
104 | RRIRHRPPRLPRPRPRPRRTPRP | 0.0506
105 | RRIRFRPPRLPRPRPRPAEYPRP | -0.397
106 | RRIRDRPPRLPRPRPRPMPLPRP | -0.0224
107 | RRIRTRPPRLPRPRPRPTTAPRP | 0.0738
108 | RRIRHRPPRLPRPRPRPCLHPRP | -0.0114
109 | RRIRHRPPRLPRPRPRPHEDPRP | 0.0316
110 | RRIRERPPRLPRPRPRPHLRPRP | -0.173
111 | RRIRNRPPRLPRPRPRPITPPRP | 0.119
112 | RRIRLRPPRLPRPRPRPKYCPRP | 0.0654
113 | RRIRTRPPRLPRPRPRPAHPPRP | 0.396
114 | RRIRRRPPRLPRPRPRPPKHPRP | 0.39
115 | RRIRLRPPRLPRPRPRPESKPRP | 0.286
116 | RRIRFRPPRLPRPRPRPCGKPRP | -0.018
117 | RRIRSRPPRLPRPRPRPHSPPRP | 0.146
118 | RRIRVRPPRLPRPRPRPCKGPRP | -0.117
119 | RRIRRRPPRLPRPRPRPNMAPRP | 0.0119
120 | RRIRKRPPRLPRPRPRPYSQPRP | 0.0349
121 | RRIRNRPPRLPRPRPRPSSMPRP | -0.458
122 | RRIRIRPPRLPRPRPRPAFCPRP | 0.167
123 | RRIRARPPRLPRPRPRPPEQPRP | 0.941
124 | RRIRCRPPRLPRPRPRPSENPRP | -0.154
125 | RRIRDRPPRLPRPRPRPMRAPRP | 0.953
